These results are taken from US12295987B2, “Method of using a GIP/GLP1 co-agonist for diabetes” (Eli Lilly and Company, priority 2018, dated 2025).

The test addresses T1, human gastric inhibitory peptide receptor (hGIPR) (Homo sapiens, UniProt P48546).
T1 construct: expressed in transfected cells; host or cells: HEK293
T1 sequence (P48546 22-466): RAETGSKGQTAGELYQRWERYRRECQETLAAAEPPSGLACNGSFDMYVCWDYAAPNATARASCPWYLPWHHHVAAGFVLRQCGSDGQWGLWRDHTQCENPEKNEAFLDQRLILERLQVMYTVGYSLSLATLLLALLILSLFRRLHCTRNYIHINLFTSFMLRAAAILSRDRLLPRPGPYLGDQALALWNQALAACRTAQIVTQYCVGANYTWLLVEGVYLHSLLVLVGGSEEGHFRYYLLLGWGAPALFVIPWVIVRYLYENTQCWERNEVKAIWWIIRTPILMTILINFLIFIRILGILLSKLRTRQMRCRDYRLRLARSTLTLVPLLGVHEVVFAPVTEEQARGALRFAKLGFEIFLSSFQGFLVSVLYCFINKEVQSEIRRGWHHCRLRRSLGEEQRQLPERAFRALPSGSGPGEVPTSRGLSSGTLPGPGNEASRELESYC
The experiment in a line: cAMP pharmacological functional assay in presence of 0.1% casein, hGIPR. Format: cell-based. To be noted: ratio of hGIPR to hGLP1R cAMP EC50 ratios. The procedure:
Each receptor over-expressing cell line (20 μl) is treated with the test peptide in DMEM (Gibco Cat #31053) supplemented with 0.1% Casein (Sigma Cat #C4765), 250 μM IBMX, 1× GlutaMAX™ (Gibco Cat #35050), and 20 mM HEPES (HyClone Cat #SH30237.01) in a 20 μl assay volume. […] EC50 is the concentration of compound causing half-maximal simulation in a dose response curve. A relative EC50 value is derived by non-linear regression analysis using the percent maximal response vs. the concentration of peptide added, fitted to a four-parameter logistic equation.
Intracellular cAMP levels are determined by extrapolation using a standard curve. Dose response curves of compounds are plotted as the percentage of stimulation normalized to minimum (buffer only) and maximum (maximum concentration of each control ligand) values and analyzed using a four parameter non-linear regression fit with a variable slope (Genedata Screener 13). EC50 is the concentration of compound causing half-maximal simulation in a dose response curve.
EC50 is the concentration of compound causing half-maximal simulation in a dose response curve.
On to “Y-Aib-EGT-αMeF(2F)-TSD-4Pal-SI-αMeL-LDKK((2-[2-(2-Amino-ethoxy)-ethoxy]-acetyl)2-(γGlu)-CO—(CH2)18—CO2H)AQ-Aib-EFI-(D-Glu)-YLIEGGPSSGAPPPS-NH2 (YXEGTXTSDXSIXLDKKAQXEFIXYLIEGGPSSGAPPPS; Aib, αMeF(2F), 4Pal, αMeL, D-Glu; lipidated K; amide; (2)..(2) Xaa at position 2 is Aib; (6)..(6) Xaa at position 6 is alpha-methyl-Phe(2F); (10)..(10) Xaa at position 10 is 4Pal; (13)..(13) Xaa at position 13 is alpha-methyl-Leu; MOD_RES (17)..(17) Lys at position 17 is chemically modified by conjugation of the epsilon-amino group of the Lys side chain with (2-[2-(2-amino-ethoxy)-ethoxy]-acetyl)2-(gamma-Glu)-CO-(CH2)18- CO2H; (20)..(20) Xaa at posit) [Peptide 203]”, for which the “[hGIPR/hGLP1R] EC50 Ratio” value came out at 7.38.

“Y-Aib-EGT-αMeF(2F)-TSD-4Pal-SI-αMeL-LDKK((2-[2-(2-Amino-ethoxy)-ethoxy]-acetyl)-(γGlu)-(2-[2-(2-Amino-ethoxy)-ethoxy]-acetyl)-CO—(CH2)18—CO2H)AQ-Aib-EFI-(D-Glu)-YLIEGGPSSGAPPPS-NH2 (YXEGTXTSDXSIXLDKKAQXEFIXYLIEGGPSSGAPPPS; Aib, αMeF(2F), 4Pal, αMeL, D-Glu; lipidated K; amide; (2)..(2) Xaa at position 2 is Aib; (6)..(6) Xaa at position 6 is alpha-methyl-Phe(2F); (10)..(10) Xaa at position 10 is 4Pal; (13)..(13) Xaa at position 13 is alpha-methyl-Leu; MOD_RES (17)..(17) Lys at position 17 is chemically modified by conjugation of the epsilon-amino group of the Lys side chain with (2-[2-(2-Amino-ethoxy)-ethoxy]-acetyl)-(gamma-Glu)-(2-[2-(2-Amino- ethoxy)-ethoxy]-acetyl)-CO) [Peptide 202]”: the “[hGIPR/hGLP1R] EC50 Ratio” value is on record as 6.73.

With “Y-Aib-EGT-αMeF(2F)-TSD-cTA-SI-αMeL-LDEK((2-[2-(2-Amino-ethoxy)-ethoxy]-acetyl)2-(γGlu)-CO—(CH2)18—CO2H)AQ-Aib-EFIEYLIEGGPSSGAPPPS-NH2 (YXEGTXTSDXSIXLDEKAQXEFIEYLIEGGPSSGAPPPS; Aib, cTA, αMeF(2F), αMeL; acylated lysine C20 diacid; amide; (2)..(2) Xaa at position 2 is Aib; (6)..(6) Xaa at position 6 is alpha-methyl-Phe(2F); (10)..(10) Xaa at position 10 is cTA; (13)..(13) Xaa at position 13 is alpha-methyl-Leu; MOD_RES (17)..(17) Lys at position 17 is chemically modified by conjugation of the epsilon-amino group of the Lys side chain with (2-[2-(2-amino-ethoxy)-ethoxy]-acetyl)2-(gamma-Glu)-CO-(CH2)18- CO2H; (20)..(20) Xaa at positi) [Peptide 155]”, the “[hGIPR/hGLP1R] EC50 Ratio” value is recorded as 5.97.

For “Y-Aib-EGT-αMeF(2F)-TSDASI-αMeL-LD-Orn-K((2-[2-(2-Amino-ethoxy)-ethoxy]-acetyl)2-(γGlu)-CO—(CH2)16—CO2H)AQ-Aib-AFI-(D-Glu)-αMeY-LIEGGPSSGAPPPS-NH2 (YXEGTXTSDASIXLDXKAQXAFIXXLIEGGPSSGAPPPS; Aib, Orn, αMe residues, lipidated Lys, D-Glu, amide; (2)..(2) Xaa at position 2 is Aib; (6)..(6) Xaa at position 6 is alpha-methyl-Phe(2F); (13)..(13) Xaa at position 13 is alpha-methyl-Leu; (16)..(16) Xaa at position 16 is Orn; MOD_RES (17)..(17) Lys at position 17 is chemically modified by conjugation of the epsilon-amino group of the Lys side chain with (2-[2-(2-amino-ethoxy)-ethoxy]-acetyl)2-(gamma-Glu)-CO-(CH2)16- CO2H; (20)..(20) Xaa at positi) [Peptide 246]”, the “[hGIPR/hGLP1R] EC50 Ratio” value was 2.48.

For “Y-Aib-EGT-αMeF(2F)-TSDHSI-αMeL-LD-Dab-K((2-[2-(2-Amino-ethoxy)-ethoxy]-acetyl)2-(γGlu)-CO—(CH2)18—CO2H)AQ-Aib-TFI-(D-Glu)-YLIEGGPSSGAPPPS-NH2 (YXEGTXTSDHSIXLDXKAQXTFIXYLIEGGPSSGAPPPS; Aib, αMeF(2F), αMeL, Dab, D-Glu; lipidated K; amide; (2)..(2) Xaa at position 2 is Aib; (6)..(6) Xaa at position 6 is alpha-methyl-Phe(2F); (13)..(13) Xaa at position 13 is alpha-methyl-Leu; (16)..(16) Xaa at position 16 is Dab; MOD_RES (17)..(17) Lys at position 17 is chemically modified by conjugation of the epsilon-amino group of the Lys side chain with (2-[2-(2-amino-ethoxy)-ethoxy]-acetyl)2-(gamma-Glu)-CO-(CH2)18- CO2H; (20)..(20) Xaa at positi) [Peptide 172]”, the “[hGIPR/hGLP1R] EC50 Ratio” value stood at 2.63.

For the substance “Y-Aib-EGT-αMeF(2F)-TSDHSI-αMeL-LD-Dap-K((2-[2-(2-Amino-ethoxy)-ethoxy]-acetyl)2-(γGlu)-CO—(CH2)18—CO2H)AQ-Aib-TFI-(D-Glu)-YLIEGGPSSGAPPPS-NH2 (YXEGTXTSDHSIXLDXKAQXTFIXYLIEGGPSSGAPPPS; Aib, αMeF(2F), αMeL, Dap, D-Glu; lipidated K; amide; (2)..(2) Xaa at position 2 is Aib; (6)..(6) Xaa at position 6 is alpha-methyl-Phe(2F); (13)..(13) Xaa at position 13 is alpha-methyl-Leu; (16)..(16) Xaa at position 16 is Dap; MOD_RES (17)..(17) Lys at position 17 is chemically modified by conjugation of the epsilon-amino group of the Lys side chain with (2-[2-(2-amino-ethoxy)-ethoxy]-acetyl)2-(gamma-Glu)-CO-(CH2)18- CO2H; (20)..(20) Xaa at positi) [Peptide 173]”, the “[hGIPR/hGLP1R] EC50 Ratio” value came out at 4.80.

On to “Y-Aib-EGT-αMeF(2F)-TSDHSI-αMeL-LD-Orn-K((2-[2-(2-Amino-ethoxy)-ethoxy]-acetyl)2-(γGlu)-CO—(CH2)18—CO2H)AQ-Aib-TFI-(D-Glu)-YLIEGGPSSGAPPPS-NH2 (YXEGTXTSDHSIXLDXKAQXTFIXYLIEGGPSSGAPPPS; Aib, αMeF(2F), αMeL, Orn, D-Glu; lipidated K; amide; (2)..(2) Xaa at position 2 is Aib; (6)..(6) Xaa at position 6 is alpha-methyl-Phe(2F); (13)..(13) Xaa at position 13 is alpha-methyl-Leu; (16)..(16) Xaa at position 16 is Orn; MOD_RES (17)..(17) Lys at position 17 is chemically modified by conjugation of the epsilon-amino group of the Lys side chain with (2-[2-(2-amino-ethoxy)-ethoxy]-acetyl)2-(gamma-Glu)-CO-(CH2)18- CO2H; (20)..(20) Xaa at positi) [Peptide 171]”, for which the “[hGIPR/hGLP1R] EC50 Ratio” value was 7.73.

In the case of “Y-Aib-EGT-αMeF(2F)-TSDHSI-αMeL-LDEK((2-[2-(2-Amino-ethoxy)-ethoxy]-acetyl)2-(γGlu)-CO—(CH2)14—CO2H)AQ-Aib-HFI-(D-Glu)-YLIEGGPSSGAPPPS-NH2 (YXEGTXTSDHSIXLDEKAQXHFIXYLIEGGPSSGAPPPS; Aib, αMeF(2F), αMeL, D-Glu; C16 diacid lipidated K; amide; (2)..(2) Xaa at position 2 is Aib; (6)..(6) Xaa at position 6 is alpha-methyl-Phe(2F); (13)..(13) Xaa at position 13 is alpha-methyl-Leu; MOD_RES (17)..(17) Lys at position 17 is chemically modified by conjugation of the epsilon-amino group of the Lys side chain with (2-[2-(2-amino-ethoxy)-ethoxy]-acetyl)2-(gamma-Glu)-CO-(CH2)14- CO2H; (20)..(20) Xaa at position 20 is Aib; (24)..(24) Xaa at positi) [Peptide 178]”, the “[hGIPR/hGLP1R] EC50 Ratio” value stood at 9.77.
